In patent publication US20260193352A1 (published 2026):

Target: T1, cynomolgus monkey PD-1 Fc fusion (cynomolgus monkey, UniProt B0LAJ3 25-170)
T1 construct: also called Cyno PD-1
Test: SPR

T1 sequence (B0LAJ3 entry or part of it limits assumed, form in doubt): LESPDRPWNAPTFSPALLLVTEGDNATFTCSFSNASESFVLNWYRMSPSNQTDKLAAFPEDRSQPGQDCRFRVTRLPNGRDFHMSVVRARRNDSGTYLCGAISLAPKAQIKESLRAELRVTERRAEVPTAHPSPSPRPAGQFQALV

fold difference in KD (cynomolgus monkey PD-1 against human PD-1): < 2 fold
B1: PD-1-binding agent (comprising SEQ ID NOs: 1 and 2) (antibody, V domains shown)
VH: EVQLLESGGGLVQPGGSLRLSCAASGFTFSSYDMSWVRQAPGKGLEWVSTISGGGSYTYYQDSVKGRFTISRDNSKNTLYLQMNSLRAEDTAVYYCASPYYAMDYWGQGTTVTVSS
VL: DIQLTQSPSFLSAYVGDRVTITCKASQDVGTAVAWYQQKPGKAPKLLIYWASTLHTGVPSRFSGSGSGTEFTLTISSLQPEDFATYYCQHYSSYPWTFGQGTKLEIKR
